Experimental data as given in patent US9433687B2, “Anti-Notch3 antibodies and antibody-drug conjugates” (Pfizer Inc., priority 2012, dated 2016).

B1: ch75: rat-human chimeric anti-Notch3 antibody 75, rat variable regions fused with human IgG1 and human kappa (antibody, V domains shown)
VH: QVKLLQSGAALVKPGASVKMSCKASGYAFTDYWVTWVKQSHGKSLEWIGEISPNSGGTNFNEKFKGKATLTVDKSTSTAYMELSRLTSEDSAIYYCTRGEIRYNWFAYWGQGTLVTVSS
VL: NIVMTQSPKSMSISVGDRVTMNCKASQNVGNNIAWYQQKPGQSPKLLIYYASNRYTGVPDRFTGGGYGTDFTLTINSMQAEDAAFYYCQRLYNSPFTFGSGTKLEIK
B2: hu28 VH1.0/VL1.0: humanized r28 variant VH1.0/VL1.0, anti-Notch3 antibody (VH SEQ ID NO: 13, VL SEQ ID NO: 25) (antibody, V domains shown)
VH: EVQLVESGGGLVQPGGSLRLSCAASGFTFRDYGMTWVRQAPGKGLEWVAYISSGSNYIYYAEAVKGRFTISRDNAKNSLYLQMNSLRAEDTAVYYCARRGPFVLDAWGQGTLVTVSS
VL: DIQMTQSPSSLSASVGDRVTITCKASQSINRYLHWYQQKPGKAPKLLIYNANGLQTGVPSRFSGSGSGTDFTLTISSLQPEDFATYYCLQHNTWPDTFGGGTKVEIK

Experiments:
[1] = tested on: Notch3 signaling in human Notch3 reporter cells co-cultured with DLL4-HEK293 cells; experiment: Notch3 reporter gene co-culture assay; assay type: cell-based; conditions: average of two or three independent experiments; read-out: IC50 (nM) inhibition of Notch3-dependent signaling
Experimental: The ability of anti-Notch3 chimeric antibodies, ch28-hulgG1 and ch75-hulgG1, and humanized antibodies, hu28 and hu75, to inhibit Notch3 signaling were tested in a Notch3-dependent reporter gene co-culture assay. Anti-Notch3 antibodies were pre-incubated with Notch3 reporter cells and then co-cultured with DLL4-HEK293 cells to activate Notch3 signaling or with parental HEK293 cells as a control.
To generate the Notch3 reporter cell line, a series of three sequential, stable transfections were performed in the U-2 OS human osteosarcoma cell line (ATCC, Manassas, Va.). […]
To generate the ligand-expressing cells, HEK293 cells (ATCC) were transfected with a vector for expression of human DLL4. […] Following transfection, HEK293 cells were selected in 0.5 mg/ml G418, and clonal lines were isolated, expanded and analyzed for DLL4 expression. […]
The luminescent readings from Firefly-luciferase were divided by the internal control Renilla-luciferase reading to normalize the signals (termed hereinafter “F/R ratio”). […]
Human Notch3 reporter cells were trypinized and harvested from culture plate in assay medium which consisted 50% complete McCoy's 5A media (McCoy's 5A with 10% FBS and penicillin, streptomycin, Invitrogen) and 50% of complete MEM media (MEM with 10% FBS and penicillin, streptomycin, Invitrogen) and counted. […]

HCC2429 (lung cancer) = experiment: In vitro cytotoxicity (MTS), HCC2429; assay type: cell-based, human; conditions: HCC2429; data not shown
Method in brief: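 Cells with endogenous Notch3 cultured four days with increasing concentrations of anti-Notch3 ADCs (chimeric or humanized antibodies with various linker-payloads, including cysteine-mutant conjugates); non-targeted ADCs served as specificity controls. Viability by MTS; IC50 from logistic non-linear regression, expressed as ng Ab/mL, with DAR given.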

Row | Molecule | IC50 [1] | effect of unconjugated antibody on viability (HCC2429 (lung cancer))
1 | B1 | 2.1 nM | –
2 | B2 | – | did not affect the viability
